Legend:
microglia [1] = assay: Cytokine mRNA and release in CIRP-stimulated microglia (RT-qPCR, ELISA); assay type: cell-based, mouse
Description: ELISA was used to quantify CIRP, MD2, IL-6, and TNF-α concentrations in blood and cerebrospinal fluid samples. Samples were processed and stored under standardized conditions to preserve protein integrity. Each target protein was measured using commercial ELISA kits, following the manufacturer’s instructions: Mouse CIRBP ELISA Kit (CSB-EL005440MO, CUSABIO), Mouse TNF-α ELISA Kit (EK282, Lianke Bio), Mouse IL-6 ELISA Kit (CSB-E04639m, CUSABIO), and […].
Primary cortical neurons were isolated from embryonic day 16–18 (E16–E18) C57BL/6 mouse embryos as previously described, and cultured in Neurobasal medium supplemented with B27 and GlutaMAX (Gibco).Primary microglial cells were isolated from the cortices of neonatal (day 1) C57BL/6J mice. After disinfection with 75 % ethanol, the skin and skull were removed, and the brains were placed in ice-cold HBSS. The meninges were peeled off, the cortex was collected, and the hippocampus was discarded. Tissues were digested with 0.25 % trypsin at 37 °C for 12 min, centrifuged at 1200 rpm for 5 min, and resuspended in complete medium. The suspension was transferred to a T75 flask with 15 mL of complete medium. […]
To mimic ischemic conditions, neurons at DIV7 were subjected to OGD. […] The supernatants were collected for subsequent CIRP quantification. […]

microglia [2] = assay: Microglial phagocytosis of CFSE-labeled RBCs; assay type: cell-based, mouse; conditions: CFSE-labeled erythrocytes 10:1, 4 h; TCC pretreatment then CIRP; n = 6
Excerpt: Primary cortical neurons were isolated from embryonic day 16–18 (E16–E18) C57BL/6 mouse embryos as previously described, and cultured in Neurobasal medium supplemented with B27 and GlutaMAX (Gibco).Primary microglial cells were isolated from the cortices of neonatal (day 1) C57BL/6J mice. After disinfection with 75 % ethanol, the skin and skull were removed, and the brains were placed in ice-cold HBSS. The meninges were peeled off, the cortex was collected, and the hippocampus was discarded. Tissues were digested with 0.25 % trypsin at 37 °C for 12 min, centrifuged at 1200 rpm for 5 min, and resuspended in complete medium. The suspension was transferred to a T75 flask with 15 mL of complete medium. After 14 days, microglial cells were harvested by shaking the flask at 270–280 rpm for 30 min, and the supernatant was collected. […]
The functional characteristics of microglial cells encompass not only the release of inflammatory cytokines but also their phagocytic activity. […] RBCs were labeled with either 0.5 μM or 5 μM CFSE, and immunofluorescence analysis determined that 5 μM CFSE was the optimal concentration for labeling (Fig. 7G). […]
RBCs were isolated via density gradient centrifugation and labeled with CFSE before being stereotactically injected into the right striatum. […] Cell viability was assessed using a Fixable Viability Dye, and flow cytometric analysis was subsequently performed. […]

B1: recombinant human CIRP (cold-inducible RNA-binding protein) (natural protein, UniProt Q14011 1-172, looked up)
chain: MASDEGKLFVGGLSFDTNEQSLEQVFSKYGQISEVVVVKDRETQRSRGFGFVTFENIDDAKDAMMAMNGKSVDGRQIRVDQAGKSSDNRSRGYRGGSAGGRGFFRGGRGRGRGFSRGGGDRGYGGNRFESRSGGYGGSRDYYSSRSQSGGYSDRSSGGSYRDSYDSYATHNE
notes: UniProtKB Q14011 is printed for the docking; also called rhCIRP; human CIRBP; source: recombinant
TNF-α and IL-6 mRNA in microglia (microglia [1]; 24-hour CIRP stimulation with or without TCC, RT-qPCR, n = 3–6): upregulated the transcription of pro-inflammatory cytokines TNF-α and IL-6 in microglia
TNF-α secretion by microglia (microglia [1]; rmCIRP 1 μg/mL, 24 h, ELISA, n = 3): the secretion of TNF-α was markedly increased
microglial phagocytosis of RBCs (microglia [2]): significantly reduced in the CIRP group compared to the PBS group

From paper PMC13227277, “Targeting CIRP and IL-6R-mediated microglial inflammation to improve outcomes in intracerebral hemorrhage” (Journal of Advanced Research, 2025)
